Patent US20190106493A1 (MABQUEST, published 2019)

Key:
[1] = molecular target: endogenous cell surface PD-1 on activated CD4 T cells (human, UniProt Q15116 25-288); assay: cell-based or functional assay
[2] = molecular target: T1, PD-1 Fc fusion protein (human, UniProt Q15116 25-167, limits assumed); assay: FIG. 5A; Luminex, PD-1 Fc beads, antibody titrated, competitor: fixed biotinylated PD-L1
T1 construct: construct limits, linker and Fc not described; the bead protein is printed only as 'PD-1 Fc fusion protein'; also called human PD-1 Fc fusion protein; PD-1 Fc fusion protein coated beads
T1 sequence (Q15116 25-167 limits assumed): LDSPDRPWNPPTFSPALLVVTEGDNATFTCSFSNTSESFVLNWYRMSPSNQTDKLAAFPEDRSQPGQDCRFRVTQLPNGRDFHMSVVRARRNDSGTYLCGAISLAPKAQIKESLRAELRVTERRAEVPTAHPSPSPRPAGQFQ

endogenous cell surface PD-1 on activated CD4 T cells, sequence (Q15116 25-288): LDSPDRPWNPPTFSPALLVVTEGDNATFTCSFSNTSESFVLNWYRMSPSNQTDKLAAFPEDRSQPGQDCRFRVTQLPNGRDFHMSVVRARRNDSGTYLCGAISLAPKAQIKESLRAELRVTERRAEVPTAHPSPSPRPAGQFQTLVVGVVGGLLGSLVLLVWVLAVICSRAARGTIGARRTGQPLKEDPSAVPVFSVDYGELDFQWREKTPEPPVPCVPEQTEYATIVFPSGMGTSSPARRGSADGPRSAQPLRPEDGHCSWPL

B1: 137F2 (antibody, V domains shown)
VH: QVQLQQPGAELVRPGTSVKMSCKAAGYTFTNYWIGWIKQRPGHGLEWIGDIYPGGGYTNYNEKFKGKATLTADTSSSTAYMQVSSLTSEDTGIYYCARGYDFVLDRWGQGTSVTVSS
VL: DIVMSQSPSSLAVSTGEKVTMTCKSSQSLFNSETQKNYLAWYQQKPGQPPKLLIFWASTRESGVPDRFLGSGSGTDFTLTISSVQAEDLAVYYCKQSYTLRTFGGGTKLEIK
For B1, the “EFRA % relative to peptide stimulation alone” value [1] was 250% and the IC50 [2] was ~200 pM.

B2: 135C12 (antibody, V domains shown)
VH: EVQLHQSGPELLKPGASVRMSCKASGYTFTNFYIHWVKQSHGKSIEWIGSIYPNYGDTAYNQKFKDKATLTVDKSSSTAYMALRSLTSEDSAVYYCARGYSYAMDYWGQGTSVTVSS
VL: NIVMTQSPKSMSMSVGERVTLTCKASENVVTYVSWYQQKPEQSPKLLIYGASNRYTGVPDRFTGSGSATDFTLTISSVQAEDLADYHCGQGYSYPYTFGGGTKLEIK
With B2 the “EFRA % relative to peptide stimulation alone” value [1] was 195%.
